Patent US20230212293A1 (published 2023)

Assays:
[1] = biological target: T1, PD-1 on PD-1 reporter Jurkat cells (PATHHUNTER Checkpoint Signaling Assay) (UniProt Q15116 25-288); assay: cell-based or functional assay
[2] = biological target: T1, PD-1 on PD-1 reporter Jurkat cells …; assay: cell-based or functional assay; remark: listed apart in the source
[3] = biological target: T1, PD-1 on PD-1 reporter Jurkat cells …; assay: cell-based or functional assay; remark: listed apart in the source
[4] = biological target: T1, PD-1 on PD-1 reporter Jurkat cells …; assay: cell-based or functional assay; remark: listed apart in the source
[5] = biological target: T2, Mouse PD-1 overexpressed on HEK293 cells (mouse, UniProt Q02242 25-288); assay: flow cytometry on HEK293 cells overexpressing mouse PD-1
T2 construct: whole, on cells
T2 sequence (looked up): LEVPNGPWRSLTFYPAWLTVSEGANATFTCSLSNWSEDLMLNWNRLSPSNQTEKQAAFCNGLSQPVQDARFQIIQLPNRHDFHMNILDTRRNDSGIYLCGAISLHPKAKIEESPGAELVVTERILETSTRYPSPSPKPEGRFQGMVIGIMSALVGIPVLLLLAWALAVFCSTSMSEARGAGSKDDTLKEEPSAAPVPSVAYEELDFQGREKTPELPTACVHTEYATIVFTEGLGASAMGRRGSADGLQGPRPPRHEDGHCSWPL
Description: (§1) HEK293 cells were modified to overexpress human or mouse PD-1. Cells were expanded in puromycin-containing media to maintain selection, and aliquoted to 96 well V-bottom plates for antibody staining and flow cytometric analysis. Anti-PD-1 antibodies were added to cells in BD stain buffer with fetal bovine serum (BD Biosciences, cat. #554656) and incubated on ice for 20 minutes. Cells were then washed, and R-phycoerythrin (PE)-labeled anti-human IgG or anti-human IgM secondary antibodies were then added and incubated for an additional 20 minutes. Data were collected on a Beckman Coulter CYTOFLEX® cytometer and analyzed in FLOWJO™.

[6] = biological target: T3, Recombinant mouse PD-1 extracellular domain (with an immunoglobulin Fc region or a His tag) (mouse, UniProt Q02242 25-169); assay: ELISA, plate-coated recombinant PD-1 extracellular domain
T3 construct: extracellular domain; Coated on ELISA plates; not shown: either an immunoglobulin Fc region or a His tag
T3 sequence (looked up): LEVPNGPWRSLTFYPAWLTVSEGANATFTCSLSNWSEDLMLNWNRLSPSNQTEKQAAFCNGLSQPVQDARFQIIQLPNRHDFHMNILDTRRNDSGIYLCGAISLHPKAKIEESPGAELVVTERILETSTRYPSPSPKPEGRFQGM
Description: (§2) An enzyme-linked immunosorbent assay (ELISA) was performed to assess the binding of anti-PD-1 antibodies to human, cynomolgus monkey, or mouse PD-1. Recombinant proteins containing the extracellular domain of PD-1 together with either an immunoglobulin Fc region or a His tag were used to coat wells of standard 96 well ELISA plates by overnight incubation at 4° C. Unbound recombinant protein was removed, Pierce SUPERBLOCK™ T20 was added, and plates were incubated for 10 minutes at room temperature with shaking. Plates were washed with phosphate buffered saline-TWEEN-20 (PBST), and anti-PD-1 antibodies were added in phosphate buffered saline (PBS) with 1% bovine serum albumin (BSA) and incubated for one hour at room temperature with shaking. Plates were then washed in PBST and incubated with horse radish peroxidase (HRP)-conjugated secondary antibodies in F(ab′)2 directed to either human IgG or human IgM. After one hour, plates were washed again with PBST, signal was developed with SUPERSIGNAL™ ELISA Pico substrate, and an ENVISION® luminometer (PerkinElmer) was used to record signal. Data were analyzed with […] PRISM®.

[7] = biological target: T4, Human PD-1 overexpressed on HEK293 cells (human, UniProt Q15116 25-288); assay: flow cytometry on HEK293 cells overexpressing human PD-1, PE anti-human IgG detection
T4 construct: whole, on cells
Description: as §1

[8] = biological target: T5, Recombinant human PD-1 extracellular domain (with an immunoglobulin Fc region or a His tag) (human, UniProt Q15116 25-170); assay: ELISA, plate-coated recombinant PD-1 extracellular domain, HRP anti-human IgG detection
T5 construct: extracellular domain; Coated on ELISA plates; not shown: either an immunoglobulin Fc region or a His tag
Description: as §2

[9] = biological target: T5, Recombinant human PD-1 extracellular …; assay: ELISA, plate-coated recombinant PD-1 extracellular domain, HRP anti-human IgM detection
Description: as §2

T1 sequence (Q15116 25-288): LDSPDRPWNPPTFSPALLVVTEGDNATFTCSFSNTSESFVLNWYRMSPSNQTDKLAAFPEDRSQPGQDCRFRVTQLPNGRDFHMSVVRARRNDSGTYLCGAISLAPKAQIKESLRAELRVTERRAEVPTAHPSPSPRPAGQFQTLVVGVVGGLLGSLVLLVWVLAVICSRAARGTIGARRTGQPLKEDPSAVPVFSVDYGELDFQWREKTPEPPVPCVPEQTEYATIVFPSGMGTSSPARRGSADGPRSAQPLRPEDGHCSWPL
T5 sequence (Q15116 25-170): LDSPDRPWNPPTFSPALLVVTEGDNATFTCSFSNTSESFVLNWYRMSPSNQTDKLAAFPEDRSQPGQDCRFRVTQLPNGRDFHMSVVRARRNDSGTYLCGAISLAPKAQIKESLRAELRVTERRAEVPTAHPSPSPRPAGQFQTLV
T4 sequence (Q15116 25-288): as the sequence (Q15116 25-288) above

B1: Anti-PD-1 IgG #1 (antibody, V domains shown)
VH: EVQLQESGPGLVKPSQTLSLTCTVTGYSITSDYAWNWIRQPPGKKLEWMGYINYSGSTSYNPSLKSRVTISRDTSKNQFSLKLSSVTAADTAVYYCARWIGSSAWYFDVWGQGTLVTVS
VL: DVLMTQTPLSLSVTPGQPASISCRSGQNIVHSNGNTYLEWYLQKPGQSPKLLIYKVSNRFFGVPDRISGSGSGTDFTLKISRVEAEDVGVYFCFQGSHVPFTFGQGTKLEIK
notes: IgG format; In the 'IgG/xlink' columns it was crosslinked 1:1 with goat anti-human IgG F(ab')2 fragment; also called Antibody #1 (IgG format)
PD-1 Signaling EC50 (PATHHUNTER Checkpoint Signaling Assay, reporter Jurkat cells), IgG [1]: 65 nM
PD-1 Signaling EC50, IgG/xlink (IgG crosslinked 1:1 with goat anti-human IgG F(ab')2 fragment) [2]: 0.65 nM
PD-1 Signaling EC50 (second incubation at 4 C), IgG [3]: 29 nM
PD-1 Signaling EC50 (second incubation at 4 C), IgG/xlink (crosslinked IgG) [3]: 4.4 nM
PD-1 Signaling EC50 (method of Example 8), IgG [4]: 85 nM
PD-1 Signaling EC50 (method of Example 8), IgG/xlink (crosslinked IgG) [4]: 1.8 nM
binding result [5]: no binding
binding result [6]: no binding
EC50 [7]: 59 nM
EC50 [8]: 1.5 nM

B2: Anti-PD-1 Hexameric IgM (IgHM) #1 (antibody, V domains shown)
VH: EVQLQESGPGLVKPSQTLSLTCTVTGYSITSDYAWNWIRQPPGKKLEWMGYINYSGSTSYNPSLKSRVTISRDTSKNQFSLKLSSVTAADTAVYYCARWIGSSAWYFDVWGQGTLVTVS
VL: DVLMTQTPLSLSVTPGQPASISCRSGQNIVHSNGNTYLEWYLQKPGQSPKLLIYKVSNRFFGVPDRISGSGSGTDFTLKISRVEAEDVGVYFCFQGSHVPFTFGQGTKLEIK
PD-1 Signaling EC50 (method of Example 8), IgHM [4]: 0.07 nM

B3: Anti-PD-1 IgG #2 (antibody, V domains shown)
VH: QVQLQESGPGVVKPSGTLSLTCAISGGSIGSGGSIRSTRWWSWVRQSPGKGLEWIGEIYHSGSTNYNPSLKSRVTISLDKSRNHFSLRLNSVTAADTAVYYCARQDYGDSGDWYFDLWGKGTMVTVSS
VL: NFMLTQPHSVSESPGKTVTISCTRSSGSIASNSVQWYQQRPGSSPTTVIYEDNQRPSGVPDRFSGSIDSSSNSASLTVSGLKTEDEADYYCQSSDSSAVVFGSGTKLTVL
notes: IgG format; In the 'IgG/xlink' columns it was crosslinked 1:1 with goat anti-human IgG F(ab')2 fragment; also called Antibody #2 (IgG format); #2 IgG
PD-1 Signaling EC50, IgG/xlink (IgG crosslinked 1:1 with goat anti-human IgG F(ab')2 fragment) [2]: 4.8 nM
PD-1 Signaling EC50 (second incubation at 4 C), IgG [3]: 5.9 nM
PD-1 Signaling EC50 (second incubation at 4 C), IgG/xlink (crosslinked IgG) [3]: 2.1 nM
PD-1 Signaling EC50 (method of Example 8), IgG [4]: 22 nM
PD-1 Signaling EC50 (method of Example 8), IgG/xlink (crosslinked IgG) [4]: 3.8 nM
binding result [5]: no binding
binding result [6]: no binding
EC50 [7]: 2.9 nM
EC50 [8]: 0.6 nM

B4: Anti-PD-1 IgM #2 (antibody)
VH: QVQLQESGPGVVKPSGTLSLTCAISGGSIGSGGSIRSTRWWSWVRQSPGKGLEWIGEIYHSGSTNYNPSLKSRVTISLDKSRNHFSLRLNSVTAADTAVYYCARQDYGDSGDWYFDLWGKGTMVTVSS
VL: NFMLTQPHSVSESPGKTVTISCTRSSGSIASNSVQWYQQRPGSSPTTVIYEDNQRPSGVPDRFSGSIDSSSNSASLTVSGLKTEDEADYYCQSSDSSAVVFGSGTKLTVL
chain: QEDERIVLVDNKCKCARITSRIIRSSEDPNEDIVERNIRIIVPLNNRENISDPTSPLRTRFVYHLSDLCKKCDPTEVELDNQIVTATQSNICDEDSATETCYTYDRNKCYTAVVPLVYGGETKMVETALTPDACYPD
notes: also called Antibody #2 (IgM format); pentameric IgM #2
PD-1 Signaling EC50 (PATHHUNTER Checkpoint Signaling Assay, reporter Jurkat cells), IgM [1]: 0.72 nM
PD-1 Signaling EC50 (second incubation at 4 C), IgM [3]: 0.1 nM
PD-1 Signaling EC50 (method of Example 8), IgM [4]: 0.29 nM
binding result [5]: no binding
binding result [6]: no binding
EC50 [9]: 0.35 nM

B5: Anti-PD-1 Hexameric IgM (IgHM) #2 (antibody, V domains shown)
VH: QVQLQESGPGVVKPSGTLSLTCAISGGSIGSGGSIRSTRWWSWVRQSPGKGLEWIGEIYHSGSTNYNPSLKSRVTISLDKSRNHFSLRLNSVTAADTAVYYCARQDYGDSGDWYFDLWGKGTMVTVSS
VL: NFMLTQPHSVSESPGKTVTISCTRSSGSIASNSVQWYQQRPGSSPTTVIYEDNQRPSGVPDRFSGSIDSSSNSASLTVSGLKTEDEADYYCQSSDSSAVVFGSGTKLTVL
PD-1 Signaling EC50 (method of Example 8), IgHM [4]: 0.4 nM

B6: Anti-PD-1 pentameric IgM #5 (antibody)
VH: QVQLVESGGGVVQPGRSLRLDCKASGITFSNSGMHWVRQAPGKGLEWVAVIWYDGSKRYYADSVKGRFTISRDNSKNTLFLQMNSLRAEDTAVYYCATNDDYWGQGTLVTVSS
VL: EIVLTQSPATLSLSPGERATLSCRASQSVSSYLAWYQQKPGQAPRLLIYDASNRATGIPARFSGSGSGTDFTLTISSLEPEDFAVYYCQQSSNWPRTFGQGTKVEIK
chain: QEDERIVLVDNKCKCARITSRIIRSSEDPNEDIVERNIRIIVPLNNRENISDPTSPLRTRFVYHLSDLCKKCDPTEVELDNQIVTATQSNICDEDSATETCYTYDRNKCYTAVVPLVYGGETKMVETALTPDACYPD
PD-1 Signaling EC50 (method of Example 8), IgM [4]: 0.03 nM

B7: Anti-PD-1 IgG #4 (antibody, V domains shown)
VH: QVQLVQSGSELKKPGASVKVSCKASGYTFTDYSMHWVRQAPGQGLEWMGWINIETGEPTYAQGFTGRFVFSLDTSVSTAYLQISSLKAEDTAVYFCARDYYGTYFYAMDYWGQGTLVTVSS
VL: EIVLTQSPATLSLSPGERATLSCTASSSVSSSYLHWYQQKPGLAPRLLIYSTSNLASGIPDRFSGSGSGTDYTLTISRLEPEDFAVYYCHQYHRSPLTFGQGTKLEIK
PD-1 Signaling EC50 (second incubation at 4 C), IgG [3]: 0.89 nM
PD-1 Signaling EC50 (second incubation at 4 C), IgG/xlink (crosslinked IgG) [3]: 1.7 nM

B8: Anti-PD-1 IgM #4 (antibody)
VH: QVQLVQSGSELKKPGASVKVSCKASGYTFTDYSMHWVRQAPGQGLEWMGWINIETGEPTYAQGFTGRFVFSLDTSVSTAYLQISSLKAEDTAVYFCARDYYGTYFYAMDYWGQGTLVTVSS
VL: EIVLTQSPATLSLSPGERATLSCTASSSVSSSYLHWYQQKPGLAPRLLIYSTSNLASGIPDRFSGSGSGTDYTLTISRLEPEDFAVYYCHQYHRSPLTFGQGTKLEIK
chain: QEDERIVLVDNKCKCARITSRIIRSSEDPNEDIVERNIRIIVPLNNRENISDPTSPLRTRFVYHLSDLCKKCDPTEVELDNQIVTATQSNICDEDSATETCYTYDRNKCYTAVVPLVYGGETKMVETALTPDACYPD
PD-1 Signaling EC50 (second incubation at 4 C), IgM [3]: 1.1 nM

B9: Anti-PD-1 IgG #3 (antibody, V domains shown)
VH: QVQLVQSGAEVKKPGASVKVSCKVSGYSLSKYDMSWVRQAPGKGLEWMGIIYTSGYTDYAQKFQGRVTMTEDTSTDTAYMELSSLRSEDTAVYYCATGNPYYTNGFNSWGQGTLVTVSS
VL: DIQMTQSPSSLSASVGDRVTITCQASQSPNNLLAWYQQKPGKAPKLLIYGASDLPSGVPSRFSGSGSGTDFTLTISSLQPEDFATYYCQNNYYVGPVSYAFGGGTKVEIK
PD-1 Signaling EC50 (second incubation at 4 C), IgG [3]: 0.19 nM
PD-1 Signaling EC50 (second incubation at 4 C), IgG/xlink (crosslinked IgG) [3]: 0.19 nM
PD-1 Signaling EC50 (method of Example 8), IgG [4]: 0.26 nM
PD-1 Signaling EC50 (method of Example 8), IgG/xlink (crosslinked IgG) [4]: 0.79 nM

B10: Anti-PD-1 IgM #3 (antibody)
VH: QVQLVQSGAEVKKPGASVKVSCKVSGYSLSKYDMSWVRQAPGKGLEWMGIIYTSGYTDYAQKFQGRVTMTEDTSTDTAYMELSSLRSEDTAVYYCATGNPYYTNGFNSWGQGTLVTVSS
VL: DIQMTQSPSSLSASVGDRVTITCQASQSPNNLLAWYQQKPGKAPKLLIYGASDLPSGVPSRFSGSGSGTDFTLTISSLQPEDFATYYCQNNYYVGPVSYAFGGGTKVEIK
chain: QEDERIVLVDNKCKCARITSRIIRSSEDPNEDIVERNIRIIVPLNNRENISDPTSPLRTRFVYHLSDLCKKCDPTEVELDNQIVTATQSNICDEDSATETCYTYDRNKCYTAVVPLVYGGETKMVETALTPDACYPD
PD-1 Signaling EC50 (second incubation at 4 C), IgM [3]: 0.065 nM
PD-1 Signaling EC50 (method of Example 8), IgM [4]: 0.13 nM

B11: Anti-PD-1 Hexameric IgM (IgHM) #3 (antibody, V domains shown)
VH: QVQLVQSGAEVKKPGASVKVSCKVSGYSLSKYDMSWVRQAPGKGLEWMGIIYTSGYTDYAQKFQGRVTMTEDTSTDTAYMELSSLRSEDTAVYYCATGNPYYTNGFNSWGQGTLVTVSS
VL: DIQMTQSPSSLSASVGDRVTITCQASQSPNNLLAWYQQKPGKAPKLLIYGASDLPSGVPSRFSGSGSGTDFTLTISSLQPEDFATYYCQNNYYVGPVSYAFGGGTKVEIK
PD-1 Signaling EC50 (method of Example 8), IgHM [4]: 0.2 nM
